Data: paper PMC7537107 (Journal of neurochemistry, 2019)

B1: HA-tagged spinophilin, full length (amino acids 1-817, fragment A) (natural protein)
chain: not shown
B2: V5-tagged GluN2B C-terminal, cytosolic tail (amino acids 839-1484) (domain or fragment, human, UniProt Q13224 839-1484, looked up)
chain: EHLFYWQFRHCFMGVCSGKPGMVFSISRGIYSCIHGVAIEERQSVMNSPTATMNNTHSNILRLLRTAKNMANLSGVNGSPQSALDFIRRESSVYDISEHRRSFTHSDCKSYNNPPCEENLFSDYISEVERTFGNLQLKDSNVYQDHYHHHHRPHSIGSASSIDGLYDCDNPPFTTQSRSISKKPLDIGLPSSKHSQLSDLYGKFSFKSDRYSGHDDLIRSDVSDISTHTVTYGNIEGNAAKRRKQQYKDSLKKRPASAKSRREFDEIELAYRRRPPRSPDHKRYFRDKEGLRDFYLDQFRTKENSPHWEHVDLTDIYKERSDDFKRDSVSGGGPCTNRSHIKHGTGDKHGVVSGVPAPWEKNLTNVEWEDRSGGNFCRSCPSKLHNYSTTVTGQNSGRQACIRCEACKKAGNLYDISEDNSLQELDQPAAPVAVTSNASTTKYPQSPTNSKAQKKNRNKLRRQHSYDTFVDLQKEEAALAPRSVSLKDKGRFMDGSPYAHMFEMSAGESTFANNKSSVPTAGHHHHNNPGGGYMLSKSLYPDRVTQNPFIPTFGDDQCLLHGSKSYFFRQPTVAGASKARPDFRALVTNKPVVSALHGAVPARFQKDICIGNQSNPCVPNNKNPRAFNGSSNGHVYEKLSSIESDV

What was measured:
[1] = biological target: B2; experiment: co-IP
[2] = biological target: B1; experiment: co-IP

Binder | fold change of co-IP with IBMX/forskolin against vehicle (V5 IP) [1] | fold change of co-IP with PKAc overexpressed against without (GluN2B_(Tail) IP) [1] | fold change of co-IP with IBMX/forskolin against vehicle (HA IP) [2] | fold change of co-IP with PKAc overexpressed against without (spinophilin IP) [2]
B1 | 3.05 ratio to control | 10.6 ratio to control |  | 
B2 |  |  | 1.48 ratio to control | 2.14 ratio to control
